Patent US5851983, “Elastase inhibitory polypeptide and process for production thereof by recombinant gene technology” (Teijin Limited, dated 1998)
Where two headings read alike, the source gives them in different places. No end group written: not given here.

What was measured:
[1] = target: T1, Calf pancreatic trypsin (Sigma) (calf (bovine), UniProt P00760); assay: enzyme inhibition with chromogenic substrate, Ki by the Henderson method
Description: (§1) To each well of a 96-well ELISA microplate were added 140 μl of the above-mentioned buffer, 20 μl of a test solution, and 20 μl of the enzyme solution, and the mixture was stirred at 37° C. for 30 minutes. Next, 20 μl of the substrate solution was added to the well, the mixture was stirred at 37° C. for one hour to develop same, and the absorbance at 405 nm was measured.
(§2) Moreover, an inhibitory constant Ki of the present (Asn^55-Ala^107) SLPI was calculated on the basis of the above data by a method of Dixon, M. and Webb, E. C. (1979), Enzyme, Longman or a method of Henderson, P. J. F. (1972) Biochem. J., 127, 321–333.

[2] = target: T2, Polymorphonuclear leukocyte elastase from human sputum (EPC Co.; Funakoshi Yakuhin) (human, UniProt P08246); assay: as above
Description: as §1, §2

[3] = target: T1, Calf pancreatic trypsin (Sigma); assay: enzyme inhibition with chromogenic substrate, Ki by the Dixon method
Description: as §1, §2

[4] = target: T2, Polymorphonuclear leukocyte elastase …; assay: as above
Description: as §1, §2

[5] = target: Human plasma thrombin (human, UniProt P00734); assay: cell-based or functional assay
[6] = target: Human plasma kallikrein (human, UniProt P03952); assay: cell-based or functional assay
[7] = target: Porcine pancreatic elastase (Sigma) (porcine, UniProt P00772); assay: cell-based or functional assay
[8] = target: Calf pancreatic chymotrypsin (Sigma) (calf (bovine), UniProt P00766); assay: cell-based or functional assay
[9] = target: Human plasma plasmin (human, UniProt P00747); assay: cell-based or functional assay
[10] = target: T2, Polymorphonuclear leukocyte elastase …; assay: enzyme inhibition with MeO-Suc-Ala-Ala-Pro-Val-pNA, Ki by the Henderson method
Description: (§3) To wells of an ELISA 96-well microtiter plate, were added 120 μl of the buffer, 20 μl of a sample solution of (Arg^55-Ala^107) SLPI obtained in Example 25, and 20 μl of the enzyme solution in this order, an the mixture was reacted at 37° C. for 1 hour. Next, 20 μl of the substrate was added to develop at 25° C. Absorption of the developed color was measured at 405 nm. As a control, SLPI was used.

[11] = target: T3, Porcine spleen elastase (Sigma) (porcine, UniProt P00772); assay: cell-based or functional assay
[12] = target: T4, Bovine spleen chymotrypsin (Sigma) (bovine, UniProt P00766); assay: cell-based or functional assay
[13] = target: T5, Human cathepsin G (EPC Co., Funakoshi Yakuhin) (human, UniProt P08311); assay: cell-based or functional assay
T5 sequence: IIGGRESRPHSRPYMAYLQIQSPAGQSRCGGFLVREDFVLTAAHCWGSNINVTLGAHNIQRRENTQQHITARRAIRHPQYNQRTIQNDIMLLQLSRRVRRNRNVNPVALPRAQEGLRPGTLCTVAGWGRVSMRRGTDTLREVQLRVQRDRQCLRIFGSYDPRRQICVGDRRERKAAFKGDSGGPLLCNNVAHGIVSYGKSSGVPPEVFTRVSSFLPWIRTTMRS

[14] = target: T6, Bovine spleen trypsin (Sigma) (bovine, UniProt P00760); assay: enzyme inhibition with Bz-Arg-pNA, Ki by the Henderson method
Description: as §3

[15] = target: T2, Polymorphonuclear leukocyte elastase …; assay: enzyme inhibition with MeO-Suc-Ala-Ala-Pro-Val-pNA, Ki by the Henderson method; remark: listed apart in the source
[16] = target: T2, Polymorphonuclear leukocyte elastase …; assay: enzyme inhibition; method not described
[17] = target: T6, Bovine spleen trypsin (Sigma); assay: enzyme inhibition with Bz-Arg-pNA, Ki by the Henderson method; remark: listed apart in the source
Description: as §3, with “(Arg^59-Ala^107)” for “(Arg^55-Ala^107)”, “23,” for “25,”

[18] = target: T3, Porcine spleen elastase (Sigma); assay: cell-based or functional assay; remark: listed apart in the source
[19] = target: T4, Bovine spleen chymotrypsin (Sigma); assay: cell-based or functional assay; remark: listed apart in the source
[20] = target: T5, Human cathepsin G (EPC Co., Funakoshi …); assay: cell-based or functional assay; remark: listed apart in the source
[21] = target: T5, Human cathepsin G (EPC Co., Funakoshi …); assay: cell-based or functional assay; remark: listed apart in the source

B1: (Asn^55 -Ala^107) SLPI fragment polypeptide (other)
chain: NPTRRKPGKCPVTYGQCLMLNPPNFCEMDGQCKRDLKCCMGMCGKSCVSPVKA
modifications: also: intramolecular disulfides in refolded form, pairing not given here
- Ki [1]: 20 nM
- Ki [2]: 0.2 nM
- Ki [3]: 60 nM
- Ki [4]: 0.03 nM
- concentration of inhibitory protein which exhibits a 50% inhibition [5]: > 2 µM
- concentration of inhibitory protein which exhibits a 50% inhibition [6]: > 2 µM
- concentration of inhibitory protein which exhibits a 50% inhibition [7]: 200 nM
- concentration of inhibitory protein which exhibits a 50% inhibition [8]: 10 nM
- concentration of inhibitory protein which exhibits a 50% inhibition [9]: > 2 µM

Binder: RRKPGKCPVTYGQCLMLNPPNFCEMDGQCKRDLKCCMGMCGKSCVSPVKA (other) [(Arg^58 -Ala^107) SLPI]
- Ki [10]: 0.09 nM
- IC50 [11]: 23000 nM
- IC50 [12]: 6.8 nM
- IC50 [13]: 8 nM
- Ki [14]: 1100 nM

B2: Human secretory leukoprotease inhibitor (SLPI) (other)
chain: SGKSFKAGVCPPKKSAQCLRYKKPECQSDWQCPGKKRCCPDTCGIKCLDPVDTPNPTRRKPGKCPVTYGQCLMLNPPNFCEMDGQCKRDLKCCMGMCGKSCVSPVKA
- Ki [10]: 0.08 nM
- Ki [15]: 0.08 nM
- Ki [16]: 0.25 nM
- IC50 [11]: 13000 nM
- IC50 [12]: 7 nM
- IC50 [13]: 5.5 nM
- Ki [17]: 33 nM
- Ki [14]: 33 nM
- IC50 [18]: 13000 nM
- IC50 [19]: 7 nM
- IC50 [20]: 5.5 nM

Binder: RKPGKCPVTYGQCLMLNPPNFCEMDGQCKRDLKCCMGMCGKSCVSPVKA (other) [(Arg^59 -Ala^107) SLPI]
- Ki [15]: 0.08 nM
- IC50 value [21]: 11 nM
- Ki [17]: 1100 nM
- IC50 [18]: 11000 nM
- IC50 [19]: 5.8 nM
- IC50 [20]: 8 nM
